Changes are numbered by the printed parent chain.
B1: Erk2-binding clone group N (RNF8-FHA domain-modified protein) (designed binder)
chain: GEPGFFVTGDRAGGRSWCLRRVGMSAGWLLLEDGCEVTVGWGGGVTYQLVSKGYLWQRRTNHCVLKQNPEGQWTIMDNKVLGGVWLNRARLEPLRVYSIHQGDYIQLGLRSLLLENAEYEYEVTEEDWETIYPCLSPKNDQMIEKN
notes: Purified protein from E. coli; also called Erk2 clone N; clone N; not shown: N-terminal fusion partner from vector pET-MalStrep (MBP/Strep) and FLAG tag
B2: Erk2-binding clone group G (RNF8-FHA domain-modified protein) (designed binder)
chain: GEPGFFVTGDRAGGRSWCLRRVGMSAGWLLLEDGCEVTVGFGTGVTYQLVSKYLPSWFTYNHCVLKQNPEGQWTIMDNKSLTGVWLNRARLEPLRVYSIHQGDYIQLGSLPGLAENAEYEYEVTEEDWETIYPCLSPKNDQMIEKN
notes: Only tested in the primary screening ELISA (E. coli extract); not shown: N-terminal fusion partner from vector pET-MalStrep (MBP/Strep) and FLAG tag
B3: Erk2-binding clone group K (RNF8-FHA domain-modified protein) (designed binder)
chain: B2 chain with S109E, L110D, P111R, G112F, L113G, A114L
notes: as for B2
B4: Erk2-binding clone group M (RNF8-FHA domain-modified protein) (designed binder)
chain: B2 chain with S109A, P111R, G112C, L113R, A114L
notes: as for B2
B5: Erk2-binding clone group L (RNF8-FHA domain-modified protein) (designed binder)
chain: B2 chain with S109A, L110M, P111F, G112S, L113D, A114V
notes: as for B2
B6: Erk2-binding clone group E (RNF8-FHA domain-modified protein) (designed binder)
chain: B2 chain with S109E, L110T, P111G, G112L, L113E, A114W
notes: as for B2
B7: Erk2-binding clone group H (RNF8-FHA domain-modified protein) (designed binder)
chain: B2 chain with S109L, L110V, P111A, G112Y, L113G
notes: as for B2
B8: Erk2-binding clone group F (RNF8-FHA domain-modified protein) (designed binder)
chain: B2 chain with L110M, P111R, G112H, L113M, A114L
notes: as for B2
B9: Erk2-binding clone group I (RNF8-FHA domain-modified protein) (designed binder)
chain: B2 chain with P111A, G112A, L113N, A114L
notes: as for B2
B10: Erk2-binding clone group B (RNF8-FHA domain-modified protein) (designed binder)
chain: B2 chain with S109A, P111K, G112Q, L113S, A114L
notes: Loop 4 ALKQSL; loops 1-3 as group A; also called Erk2 clone B; not shown: N-terminal fusion partner from vector pET-MalStrep (MBP/Strep) and FLAG tag
B11: Erk2-binding clone group C (RNF8-FHA domain-modified protein) (designed binder)
chain: B2 chain with S109A, L110M, P111T, G112T, L113S, A114Y
notes: Loop 4 AMTTSY; loops 1-3 as group A; also called Erk2 clone C; not shown: N-terminal fusion partner from vector pET-MalStrep (MBP/Strep) and FLAG tag
B12: Erk2-binding clone group A (RNF8-FHA domain-modified protein) (designed binder)
chain: B2 chain with S109G, L110I, P111W, G112S, L113D, A114L
notes: Expressed from pET-MalStrep in E. coli; also called Erk2 clone A; not shown: N-terminal fusion partner from E. coli vector pET-MalStrep (MBP, purified on MBPTrap)
B13: Erk2-binding clone group D (RNF8-FHA domain-modified protein) (designed binder)
chain: B2 chain with L110H, P111K, G112W, L113W, A114V
notes: Loop 4 SHKWWV; loops 1-3 as group A; also called Erk2 clone D; not shown: N-terminal fusion partner from vector pET-MalStrep (MBP/Strep) and FLAG tag
B14: Trx-binding clone group H (RNF8-FHA domain-modified protein) (designed binder)
chain: GEPGFFVTGDRAGGRSWCLRRVGMSAGWLLLEDGCEVTVGSDWGVTYQLVSKRWLGNVVFNHCVLKQNPEGQWTIMDNKAGHGVWLNRARLEPLRVYSIHQGDYIQLGEPSSLHENAEYEYEVTEEDWETIYPCLSPKNDQMIEKN
notes: not shown: N-terminal fusion partner from vector pET-MalStrep (MBP/Strep) and FLAG tag
B15: Trx-binding clone group A (RNF8-FHA domain-modified protein) (designed binder)
chain: GEPGFFVTGDRAGGRSWCLRRVGMSAGWLLLEDGCEVTVGFVPGVTYQLVSKVLFAEKNANHCVLKQNPEGQWTIMDNKVWNGVWLNRARLEPLRVYSIHQGDYIQLGQVSPLGENAEYEYEVTEEDWETIYPCLSPKNDQMIEKN
notes: also called Trx clone A; not shown: N-terminal fusion partner from vector pET-MalStrep (MBP/Strep) and FLAG tag
B16: Trx-binding clone group D (RNF8-FHA domain-modified protein) (designed binder)
chain: B15 chain with Q109R, V110G, S111C, P112L, L113G, G114L
notes: Loop 4 RGCLGL; loops 1-3 as Trx group A; not shown: N-terminal fusion partner from vector pET-MalStrep (MBP/Strep) and FLAG tag
B17: Trx-binding clone group C (RNF8-FHA domain-modified protein) (designed binder)
chain: B15 chain with Q109G, S111F, P112R, L113K
notes: Loop 4 GVFRKG; loops 1-3 as Trx group A; not shown: N-terminal fusion partner from vector pET-MalStrep (MBP/Strep) and FLAG tag
B18: Trx-binding clone group G (RNF8-FHA domain-modified protein) (designed binder)
chain: B15 chain with V42L, V53P, L54M, F55R, A56R, A60M, W81R, N82I
notes: as for B14
B19: Trx clone A expressed from pcDNA3.1-RNF8-V5/His in HEK293T cells (designed binder)
chain: B15 chain
notes: Control clone in the pull-down of endogenous Erk1/2; not shown: C-terminal V5 and His tags of vector pcDNA3.1-V5/His

What follows are binders tested against T1, human Erk2 (extracellular signal-regulated kinase 2), purchased from Sigma (human, UniProt P28482 1-360, limits assumed) (assay: SPR (BIACORE 3000), biotinylated Erk2 on SA sensor chip).
T1 construct: Biotinylated with EZ-Link NHS-PEO4-Biotin for selection and for SPR (SA sensor chip); immobilised directly on the plate for ELISA; also called recombinant Erk2 protein; Erk2 protein
T1 sequence (P28482 whole entry): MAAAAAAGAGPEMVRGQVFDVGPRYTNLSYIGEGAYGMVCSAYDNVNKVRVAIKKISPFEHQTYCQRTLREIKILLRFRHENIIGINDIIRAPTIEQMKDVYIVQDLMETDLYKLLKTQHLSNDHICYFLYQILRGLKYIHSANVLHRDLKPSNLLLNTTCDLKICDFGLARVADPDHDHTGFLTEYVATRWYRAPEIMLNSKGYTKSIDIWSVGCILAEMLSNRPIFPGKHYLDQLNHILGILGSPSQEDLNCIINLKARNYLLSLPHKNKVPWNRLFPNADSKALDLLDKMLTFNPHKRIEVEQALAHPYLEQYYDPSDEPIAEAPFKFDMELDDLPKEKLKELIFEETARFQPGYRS
B1 showed a Kd of 30 nM.

These binders were tested against T1, human Erk2 (extracellular …) (assay: primary screening ELISA, E. coli extract on immobilised antigen, anti-FLAG-HRP).
B2: binds.
B3: binds.
B4: binds.
B5: binds.
B6: binds.
B7: binds.
B8: binds.
B9: binds.

These binders were tested against T1, human Erk2 (extracellular …) (assay: ELISA, purified clone 500 ng/well on immobilised antigen, anti-FLAG-HRP detection).
B1 was tested, and the “ELISA (S/N)” value was 12.6 S/N.
In the case of B10, the “ELISA (S/N)” value is reported as 30 S/N.
In the case of B11, the “ELISA (S/N)” value is reported as 12 S/N.
For B12, the “ELISA (S/N)” value was 30 S/N.
For B13, the “ELISA (S/N)” value was 13.6 S/N.

What follows are binders tested against T2, Escherichia coli thioredoxin, purchased from Sigma (Escherichia coli, UniProt P0AA25 2-109 = thioredoxin) in the same assay as above.
T2 construct: Immobilised on the plate for ELISA; also called Trx
T2 sequence (P0AA25 2-109 limits assumed): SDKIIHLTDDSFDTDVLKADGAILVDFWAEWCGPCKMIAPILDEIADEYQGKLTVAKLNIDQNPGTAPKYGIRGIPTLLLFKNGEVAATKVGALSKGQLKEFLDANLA
With B14 the “ELISA (S/N)” value was 5.7 S/N.
B15 was tested, and the “ELISA (S/N)” value was 30.5 S/N.
In the case of B16, the “ELISA (S/N)” value is reported as 4.7 S/N.
B17 was tested, and the “ELISA (S/N)” value was 4.4 S/N.
In the case of B18, the “ELISA (S/N)” value is reported as 22.2 S/N.

The binders below were run against T3, endogenous Erk1 of HEK293T cells (UniProt P27361 2-379) (assay: His-tag (TALON resin) pull-down from transfected HEK293T cells, Western blot with anti-ERK antibody).
T3 construct: Endogenous intracellular protein, not a recombinant construct; also called Erk1/2
T3 sequence (P27361 2-379 limits assumed): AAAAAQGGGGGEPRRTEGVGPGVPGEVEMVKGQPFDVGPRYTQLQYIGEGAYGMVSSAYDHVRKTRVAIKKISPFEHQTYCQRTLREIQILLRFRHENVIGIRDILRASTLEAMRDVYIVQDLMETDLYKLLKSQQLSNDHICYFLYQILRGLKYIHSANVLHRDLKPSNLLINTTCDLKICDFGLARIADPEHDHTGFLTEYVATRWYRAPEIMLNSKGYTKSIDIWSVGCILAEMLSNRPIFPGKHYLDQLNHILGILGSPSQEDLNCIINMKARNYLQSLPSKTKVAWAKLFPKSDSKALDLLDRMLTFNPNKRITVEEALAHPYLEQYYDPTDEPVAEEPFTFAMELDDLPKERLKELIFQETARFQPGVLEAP
B19: no binding.

These binders were tested against T4, endogenous Erk2 of HEK293T cells (UniProt P28482 2-360) in the same assay as above.
T4 construct: Endogenous intracellular protein, not a recombinant construct; also called Erk1/2
T4 sequence (P28482 2-360 limits assumed): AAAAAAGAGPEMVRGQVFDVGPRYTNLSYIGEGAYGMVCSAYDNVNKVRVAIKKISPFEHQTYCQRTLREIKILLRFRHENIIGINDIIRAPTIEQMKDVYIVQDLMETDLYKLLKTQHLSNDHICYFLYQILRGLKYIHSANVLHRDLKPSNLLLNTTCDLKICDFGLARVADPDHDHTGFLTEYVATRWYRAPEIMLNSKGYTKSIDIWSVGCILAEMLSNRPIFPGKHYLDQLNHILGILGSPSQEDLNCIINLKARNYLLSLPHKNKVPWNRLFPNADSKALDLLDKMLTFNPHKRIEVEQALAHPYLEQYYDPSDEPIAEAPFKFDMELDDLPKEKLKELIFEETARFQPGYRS
B19: no binding.

Each binder was assayed against T1, human Erk2 (extracellular …) (assay: Immunoprecipitation on anti-FLAG M2 agarose of recombinant Erk2 added to HEK293T cell lysate; SDS-PAGE (CBB staining) and Western blot with anti-ERK antibody).
B15: no binding.

Reference: patent publication US20130143299A1 (GENEFRONTIER, published 2013)
